In paper PMC6054568:

Columns and labels:
ErbB2 CCH-10 = ErbB2 CCH-10 (UniProt P04626); assay: bipartite tetracysteine display
ErbB2 V635G CCH-10 = ErbB2 V635G CCH-10 (UniProt P04626); assay: bipartite tetracysteine display

Substance | fold increase in ReAsH fluorescence (no growth factor) (ErbB2 CCH-10) | fold increase in ReAsH fluorescence (no growth factor) (ErbB2 V635G CCH-10)
ErbB2 CCH-10 (from UniProt P04626 23-1255) (receptor) | 1.8 fold | –
ErbB2 V635G CCH-10 (from UniProt P04626 23-1255) (receptor) | – | 1.7 fold
